Measured values: US20240392013A1, “IL1RAP ANTIBODIES AND USES THEREOF” (STELEXIS THERAPEUTICS, LLC, priority 2021, published 2024)

Experiments:
hIL1RAP = molecular target: T1, hIL1RAP (Homo sapiens, UniProt Q9NPH3); test: Binding of mAbs to human IL1RAP protein by cell-free ELISA; parameters: extracellular domain His-tagged, Cat #10121-H08H; His; purchased Sino Biological 10121-H08H; conditions: FIG. 1
T1 sequence (Q9NPH3 21-367 limits assumed): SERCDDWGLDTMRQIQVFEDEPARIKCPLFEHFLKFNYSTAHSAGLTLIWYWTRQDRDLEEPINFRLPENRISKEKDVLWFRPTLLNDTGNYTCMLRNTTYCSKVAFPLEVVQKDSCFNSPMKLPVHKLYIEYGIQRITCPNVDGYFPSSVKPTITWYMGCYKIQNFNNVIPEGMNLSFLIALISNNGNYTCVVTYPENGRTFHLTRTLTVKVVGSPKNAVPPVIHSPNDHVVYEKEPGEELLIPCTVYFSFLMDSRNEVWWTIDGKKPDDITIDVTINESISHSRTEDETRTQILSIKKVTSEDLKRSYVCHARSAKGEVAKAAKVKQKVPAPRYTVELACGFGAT
Experimental: Recombinant human or mouse IL1RAP proteins (Sino Biological, Beijing, China; Cat #10121-H08H and Sino Biological, Cat #52657-M08H respectively) were diluted in PBS, pH 7.4 at concentration of 1 μg/ml, coated on high-binding 384-well clear plates and incubated overnight at 4° C. Following, plates were washed 3× with 0.05% Tween-20 in PBS, pH 7.5 and then blocked with 1% BSA in PBS for 1 hour at room temperature. After 3× washes, wells were incubated with each antibody at the highest concentration of 100 nM followed by seven serial half log dilutions (in 1% BSA and 0.05% Tween-20 in PBS) for 1 hour at room temperature. Plates were then washed 3× and incubated with […] detection antibody (Medna, TX, USA; Cat #D8212, 0.5 μg/ml diluted in 0.02% Tween-20 in PBS). After 5× washes, Supersignal ELISA Pico substrate (Thermofisher, MA, USA; Cat #37069) was applied to wells and chemiluminescent signal was read on Sprectramax L for 200 ms/well. Similarly, detection with specific κ and λ antibodies was conducted to define light chain isotyping.
Binding of mAbs to human IL1RAP protein was determined by cell-free ELISA. mAbs bound to human IL1RAP and EC50 values were calculated at the nM range.

[1] = tested on: IL1-induced NFκB activity; test: HEK-BlueIL1β NFκB Reporter Assay; type: cell-based; conditions: nM range, read-out: IC50, inhibition of IL1-induced NFκB activity
Experimental: The HEK-Blue IL1β (Invivogen, Cat #hkb-il1b) cell line was used to monitor NFκB activity upon stimulation with IL1β cytokine. In this cell line the secreted embryonic alkaline phosphatase reporter gene (SEAP) is inducibly expressed under the control of IFN-β minimal promoter fused to NFκB/AP-1. Specificity to IL1β cytokine was achieved by blockage of TNF-α response. The cells were maintained in the presence of hygromycin (200 μg/ml) and zeocin (100 μg/ml).
For the functional assay, cells were plated at a density of 5×10^4 cells/well in 96-well plates. Cells were treated with each antibody at the highest concentration of 200 μg/ml followed by seven serial 1:3 dilutions and incubated for 45 minutes at 37° C./5% CO2 in humified incubator. Cells were then stimulated with IL1β ([…]) and incubated overnight at 37° C./5% CO2 in humified incubator. Every treatment was conducted in triplicates. Following, supernatants from each well were mixed with Quanti-Blue substrate (Invivogen, CA USA; Cat #rep-qb1) according to manufacturer's recommendations and secreted SEAP was measured using spectrophotometer at 650 nm.

[2] = tested on: IL1-induced downstream signaling (phospho-p38, NFκB) in THP-1 cells; test: IL1 signaling in AML (THP-1) cells, Western blot; type: cell-based, human; conditions: antibody 20 μg/ml, IL1β 100 ng/ml
Experimental: AML patient samples or cancer cells (AML, chronic myelogenous leukemia (CML), pancreatic, head and neck squamous cell carcinoma (HNSCC), bladder, non-small-cell lung carcinoma (NSCLC), colorectal and triple-negative breast cancer (TNBC)) were seeded in 6-well plates (5×10^5 cells/well) and incubated overnight at 37° C./5% CO2 in humified incubator. In experiments conducted in cancer cell lines, cells were washed 2× with PBS and serum-starved for 3 hours. Following, cells were treated with IL1RAP antibodies at concentration of 20 μg/ml and incubated for 1 h at 37° C./5% CO2 in humidified incubator. After 1 h, cells were treated with IL1β (Invivogen, cat: rcyec-hil1b), IL33 (Adipogen, cat: AG-40B-0160-C010) or IL36 cytokines (R@D, cat: 6836IL) at 100 ng/ml and incubated for 15 more minutes. Cells were harvested on ice after 1× wash with cold PBS and were centrifuged for 5 minutes at 5000 rpm at 4° C. Cells were then lysed with NP-40 buffer for 5 minutes on ice and centrifuged for 15 minutes at 15000 rpm at 4° C. Supernatants were collected and protein concentrations were determined by BCA (Thermofisher, Cat #PI23225). […] After 3× washes, ECL was applied (Thermofisher, Cat #32106) and proteins were detected after exposure to autoradioraphic films (Worldwide medical products, Cat #41101001) and protein intensity was quantitated using ImageJ software.

AML cells (patient #6) = test: AML patient-derived sample engraftment in immunodeficient mice; type: in vivo, NSG-SGM3 immunodeficient mice
Source text: Methods: NSG™-SGM3 immunodeficient mice (Jackson Laboratory) were irradiated with 200 rads and then infused with AML cells (patient #6) collected from a leukapheresis sample and then treated bi-weekly with three doses of STLX2012 or control IgG1 antibody for 7 weeks. Doses were 1 mpk, 10 mpk, or 30 mpk for STLX2012, and 30 mpk for control IgG1.

[3] = day 50, 1, 10, 30 mpk bi-weekly 7 weeks, vs control IgG

Molecule	Binding to human IL1RAP (hIL1RAP)	IC50 [1] [nM]	Inhibition of IL1 signaling (phosphorylation of p38 and NFκB) [2]	bone marrow (BM) chimerism, dose dependence (AML cells (patient #6); 1, 10, 30 mpk)	human CD45+AML cells in spleens (AML cells (patient #6); [3])	human CD45+AML cells in the bone marrow (AML cells (patient #6); [3])
74804_12A21B: anti-IL1RAP mAb; VH SEQ ID NO:6, VL SEQ ID NO:23, κ light chain (antibody, V domains shown, 74804_12A21B VH and 74804_29D13A VH; 74804_12A21B VL) VH: QVQLLQSGAEVKKPGSSVKVSCKASGGTFSIYAIDWVRQAPGQGLEWMGGIIPIFGTANSAQKFQGRVTITADKSTSTAYMELSSLRSEDTAVYYCARNGATSDAFDMWGQGTMVTVSS VL: EIVLTQSPGTLSLSPGERATLSCRASLSVSSNYLAWFQQRPGQAPRLLIHGVSRRATGIPDRFSGSGSGTDFTLTISRLEPEDFAVYYCQQYGSSPLTFGGGTKVEIK	bound to human IL1RAP in a dose dependent manner	1.31	inhibited IL1 signaling in these AML (THP-1) cells	dose-dependent reduction in bone marrow (BM) chimerism	significantly reduced human CD45+AML cells	significantly reduced human CD45+AML cells
74804_43F04A: anti-IL1RAP mAb; VH SEQ ID NO:7, VL SEQ ID NO:22, κ light chain (antibody, V domains shown, 74804_43F04A VH; 74804_07K10A VL, 74804_29D13A VL and 74804_43F04A VL) VH: QVQLLQSGAEVKKPGSSVKVSCKASGGTFSIYAIDWVRQAPGQGLEWMGGIIPIFGTENSAQNFQGRITITADKSTNTAYMELSSLRSEDTAVYYCARNGATSDAFDIWGQGTMVTVFS VL: EIVLTQSPGTLSLSPGERATLSCRASLSVSSNYLAWFQQRPGQAPRLLIYGVSRRATGIPDRFSGSGSGTDFTLTISRLEPEDFAVYYCQQYGSSPLTFGGGTKVEIK	bound to human IL1RAP in a dose dependent manner	2.29				
